# Data from paper doi:10.1101/679134.
# Test system: CsrA-2 (rCsrA-2) (Coxiella burnetii)
# Assay: EMSA
# Conditions: 30 min 37 C, pH not stated
substance,measurement,value
CbsR12,Kd,130 nM
